Drawing on paper doi:10.1101/2023.05.02.539095 (bioRxiv, 2023), this text covers stoichiometry N for two substances.

The target of test [1] is 0317ΔCD (MSMEG_0317 lacking the C-terminal cytoplasmic domain) (M. smegmatis). The experiment in a line: SEC-MALS.
Test [2] concerns the target 0317ΔNH (MSMEG_0317 lacking the N-terminal TM helix) (M. smegmatis). The experiment in a line: SEC-MALS.

One may read the stoichiometry N as the number of molecules, sites or subunits per partner or assembly.

For “0317ΔCD (MSMEG_0317 lacking the C-terminal cytoplasmic domain) (domain or fragment)”, the stoichiometry N in test [1] amounted to 2.

In test [2], “0317ΔNH (MSMEG_0317 lacking the N-terminal TM helix) (domain or fragment)” came in with a stoichiometry N of 2.
